Measurements as given in the DeepSol protein solubility set.

Experiment: soluble on expression in E. coli; label from the status in PepcDB or PDB records

Sequence	soluble on expression in E. coli
MGSDKIHHHHHHMERHTVNEIEIFTIPFDKARTISCAFLIKKGSAHEPEELAGISHFIEHMAFRGTKSYDHFSLKYTVEVVGGTLNAFTDKLATAYYAKVPEFHFGKTLNVLKEITFYPIFSPEDTEIERKIILEEYKMSQDDPTSKLFDTLVETVWPGPYGRPIIGRKETIEKISSEDLREYHRKNYNLPDTKIILAGKVNDDYLSLLEKELSELERNKPGDPLPPPPSFEHTEPRYIVRNDLEQVHIAMARPICGRISEDIYPLYALNTALGSGMSSILFHEIREKEGFVYDVFSQIYALKETGIIIVYAALSPEKIDEFFSKMKDVLSNESLFMKNFEYGKMRYLGKLDMVTDNPAGMMSFVIDDLSNDSLETIEERVERIKNVSKEDYRRAYERFIAGNWSVFGIGPESGKIIEKHEMIV	not soluble
MPVELKSFDEFVKVVERAVECRVKRGKDVVKIKARTKRYLYTLKVPPEKEAEVLEQVKAKCKNLVELLEHHHHHHLEHHHHHHLEHHHHHHLEHHHHHHLEHHHHHHLEHHHHHHLEHHHHHH	not soluble
MKHTFKLSLLCSAILLAGCGDNTSSSGTTDKVTFESEVQALLDRGTSISFTIQGANADVPAPSYLLMDTSDGTLGLPTNGDDALTNPRASMNTMDGWSTSMPIVLNFNGDGFAPGMLASGVKVIKINQRLTEWDGKTNPIAKVLVQNQDYVVQANGKSLYVQFADSLDESSEYIFAVTQDVTDVNGEPIGTSSSYAVAKSKQVKYESGDLASVQAVTEAVEGIFGLAQVNPADIVYSSWFSTQSVGDTLAAVKGVTATGFATGANTLNTIYKNDTNENAVDLATAYTMVLGETQDFMTALDSDSDFNKYVSDLDAAKTAIKGLYVQSGASVNVTQGQVRLPHYLEKGANWNMQPMVSAMPSLAKLNAALTDPAEQANMVQQLSSGVFASSPVDVSKLATDPTEQLKLVGSKLYLNDGTQLDSERVITRYSPVPEVKSLENVEFLLFTPQNGVAKDVVIYQHGITSAKENAYAFAFNMVQTGVAVIAIDLPIHGTRSLDEQRSANANVLAYLNLSNLAVARDNLRQSVLDVLGLRASLVVSAQGGLLAGGPLQGFNPMTGSQVK	not soluble
KPGAMYRNSSKPAYTRREYISGIPGKKIAQFDMGNNGAGPTYPAQVELVVEKPVQIRHNALEAARVAANRYVQNSGAAANYKFRIRKFPFHVIRENKAAAAAAAAAAADGMRAPFGKPVGTAARVHGANHIFIAWVNPDPNVEEAWRRAKMKVTPTINIDSSPAGNA	soluble
MSLTELEFVTEHRRYLHKHPELSLHEYETTKYIAHFLDDLGVPYERPLDTGVIAYLSGNSTHTIAYRADIDALPIYEENNVSYRSEVDHVMHACGHDGHTTALMLFVKRCKNLADKGELPQNIVFIFQPAEETGGGANRLIRAGAFEKYPIEAVFGIHVMPFENEGRVVIRDEEITASATEYRFYLHGLSSHVADKEQGHSCGEALQHVLTQVGQIQQYHLNGLKRNIVHMGHFEAGEAINTVPSNGYLEGTIRTYDVKDLEIVKQQMTKISESVKLLFNVECEVKFEEGYPPTFNDPQLRKHVENGLVNAEFEVIDKPTPYLFGEDFSFYSQIAPSYFVFVGVRDEAKGYVTGLHTSHLNFNESILIRIADYYEQILKSYSEVQSEGHHHHHH	soluble
MSKAAKKKSSKKRSGSEAAQFDQKTIQEFKEAFGIMDQNKDGIIDKSDLKDLYASMGQIAPDSQIDAMIKEASGPINFTVFLTLFGERLTGTDPEATIVGAFAMFDKKDCGKIKEDDLIKILQNKRGEPLDEDEVKAMYKGKPPIEGGEVDYKAFAHLITTGAQDELASA	not soluble
MGSDKIHHHHHHMVTIQNDRFTATINEVGAELTHLVDQASHRDLIWNNDLWPKHAPVLFPAIGRSNEDSYLIDGQRYEMPQHGFVSGETFMIVDQTPTAVTLSLTANAATRVYYPFYFELQVTFTLVATGLNLTFSVQNHGQQDLSYSLGSHPAFNVPFEAGEAFTDYELVLDPAPTDLQQFEIVKTPNPYRSGKELPVTTDKGVIKLNYPMFDAGLIILKAPNLAHLTLQSTKSKHSISLNLDDFDYVTLWTKEGAQAPFLCLEPFNGLPDVAGDLRELATKEGNHHVAVGQSETMAYTITVD	not soluble
MVKNGRDPPERNFYCTEKEETAPPLMNIFDDFKSQIEREIMTIFLKTAYESLLSIAISTEIIVPEDETRSLEKEVIKLMKLMKLMNLLEPLGNRVSRLMGLVRNAEEHRERIVKRNQESDVREIFKIAASRTKTRFHKALQKESSSSSMKWGFTEAKDEVLSLGIRLTHALIKLTLLRVKKNDREKQLLLRDWIFDESYEKQSALMYLLDYLLYKAEEFAASVVVEESGNDHHRQHILEEDRIGDDILTRISEAIFILQLLAMNLSRNVLTERDLIATNDQLLRCVRDVKFVESTIVVLMKGRSLKLKHKGKQSLLMKERTETIFWAKVNAELNKCWGESFWKYVEAARHLEAVVSSQQIVYTLCKLFVFGFES	not soluble
MGSDKIHHHHHHYQPEKHAVVKSDRGDGRLLSTYAIVHEMLKDTHPQYAYRSGMSAQEFTQWQDGVRAAMVEIMKFPEIKRQPSPVCVKTEKKEGYILEKWEFYPFPKSVSTFLVLKPEHLKGAVPGVLCIPGSGRTKEGLVGEPGICDKLTEDYNNPKVSMALNMVKEGYVAVAVDNAAAGEASDLECYDKGWNYDYDVVSRFLLELGWSWLGYTSYLDMQVLNWMKAQSYIRKDRIVISGFSLGTEPMMVLGVLDKDIYAFVYNDFLCQTQERAVVMTKPDKENRRPFPNSIRHLIPGYWRYFNFPDVVASLAPRPIIFTEGGLDRDFRLVQSAYAASGKPENAEFHHYPKFADKAVRKDVEHLDEGLDSKTYFEAVNVDPPSHYFKNELVIPWLRKVLK	not soluble
MSLQMERRGISALPLHYGHPPEYLFKRAVKLSGIMAEIIVDTYGQGELIRRLADPFWFHSLSLVTGFDWNSSGTTVFTLSALKEYLSTRDLGVKVCGGKASAMADMRADLLSSVETGILKEDDKEYVYENARRIAKIDNSLLQDGYDLYMQFVVVSDRGRHAVIQQGMNSEDRMARRYHWLIGNERVDVEGRYGLSADKTSLNVLDLSATESRDNRSAIVASVREGEVWRFRSGAQSTLDNFSLPFLDLSGRVNWKKLRDLYEYGVDDFEKIYMEKGIGKSTLRALSYIAEVIYGPKASFRDPVKFSFAVGGKDGIPKPVNTYDYDRAIEFFSDLIREKDLNVREKETIARSLAHLSQMKTNFYSEGHHHHHH	soluble
MNVVSNTQLLEQRIADFFTLSDEHKKARVLLDTLACSCPARIFGGMVRDLGLYGVDGFSSDLDIVIGRSREELFQTLAELPVKQLRFNKFGGIRFRYHDFEFDIWNLNETWAFQEKLIFCEDESSLLNEVA	not soluble
MSLTSDKIFFHHLDNLRPSLTPVKELKEPVGQIVCTDKGILAVEQNKVLIPPAWNKTFAWGYADLSCRLGTYESDKAVTVYECLSEWGQILCAVCPNPKLVITGGTSTVVCVWEMGTSKEKAKPLTLKQALLGHTDTVTCATASLAYHIIVSGSRDRTCIIWDLNKLSFLTQLRGHRAPVSALCINELTGDIVSCAGTYIHVWSINGNPIVSVNTFTGRSQQIVCCCMSEMNEWDTQNVIVTGHSDGVVRFWRMEFLQVPETPAPEPVEDLEMQEGCPEAQIGQQAQDDDSSDSETEEPSVSQDPKDTSSQPSSTSHRPRAASCRATATWCTDSGSDDSRRWSDQLSLDEKDGFIFVNYSEGQTRAHLQGPLAHPHPNPIEARSYSRLKPGYRWERQLVFRSKLTMHTAFDRKDNTHPAEVTALGVSKDHSRILVGDSRGRVFSWSVSDQPGRSAADHWVKDEGGDSCSGCSVRFSLTERRHHCRNCGQLFCQKCSRFQSEIKRLKISSPVRVCQNCYYSLQHERGAEDGPRNCEGHHHHHH	not soluble
MGSDKIHHHHHHMFDAIGWDEIKNFEYMKQSIIAKIEHACASHEIPLHTHPKGQLILALHGYVTCEVSAKMWMVPTHSAIWIPAYKVHSNRASDNAKLCHLFIDSNMDGMPQNTCTLAISPLVKELMCELASRDQHYRSNSKTARLAQVLHDQLIDMPIQHLDFVLSKNMVIQAMSQQLISQPHDRKTLPQWAEQFALTERTLARLIKKETGMTFGKWRTQLHIITSLQALSDKQSVQQVSELLGYESVSAFITMFKKVMKTSPMKYMNELNAY	not soluble
SAALTDVQRLQSRVEELERWVYGPGGTRGSRKVADGLVKVQVALGNIASKRERVKILYKKIEDLIKYLDPEYIDRIAIPEASKLQFILAEEQFILSQVALLEQVNALVPVLDSASIKAVPEHAARLQRLAQIHIQQQDQCVAITEESKALLEGYNKTTMLLSKQFVQWDELLCQLEAAKQVKPAEE	soluble
NLPNIVILATGGTIAGSAAANTQTTGYKAGALGVETLIQAVPELKTLANIKGEQVASIGSENMTSDVLLTLSKRVNELLARSDVDGVVITHGTDTLDESPYFLNLTVKSDKPVVFVAAMRPATAISADGPMNLYGAVKVAADKNSRGRGVLVVLNDRIGSARFISKTNASTLDTFKAPEEGYLGVIIGDKIYYQTRLDKVHTTRSVFDVTNVDKLPAVDIIYGYQDDPEYMYDASIKHGVKGIVYAGMGAGSVSKRGDAGIRKAESKGIVVVRSSRTGSGIVPPDAGQPGLVADSLSPAKSRILLMLALTKTTNPAVIQDYFHAY	soluble
MSAEASGPAAAAAPSLEAPKPSGLEPGPAAYGLKPLTPNSKYVKLNVGGSLHYTTLRTLTGQDTMLKAMFSGRVEVLTDAGGWVLIDRSGRHFGTILNYLRDGSVPLPESTRELGELLGEARYYLVQGLIEDCQLALQQKRETLSPLCLIPMVTSPREEQQLLASTSKPVVKLLHNRSNNKYSYTSTSDDNLLKNIELFDKLALRFHGRLLFLKDVLGDEICCWSFYGQGRKIAEVCCTSIVYATEKKQTKVEFPEARIFEETLNILIYETPRGPDPALLEATGGAAGAGGAGRGEDEENREHRVRRIHVRRHITHDERPHGQQIVFKDLEHHHHHH	not soluble
MGSDKIHHHHHHMRKDDVVIVTCAITGAIHTPSMSPYLPVTPDQIVEEAVKAAEAGAGMVHIHARDPKDGRPTTDVEVFRYICREIKKQSDVVINVTTGGGGTLGIPVEERAKVVPALKPEIATFNMGSMNFAIHPLLKKYKEFKYDWEPEYLEMTRDIVFRNTFKDLEALSRIFKENDTKPELECYDIGQIYNTAFMFHEGYLEPPLRLQFIHGILGGIGTAVEDVLFMKQTADRLIGRENYTWSLVGAGRFQMPLGTLAVIMGGDVRVGLEDSLYIERGKLAKSNAEQVEKMVRIVKELGKRPATPDEVREILGLKGKERVNF	not soluble
MGKTLVVGAGGVSHAAVHKMAMNSDIFTEITLASRTKAKCDAIAASVKERTGVTIQTAALDAMDVAATVALIKETGAEILVNLALPYQDLKLMDACLEAGCHYLDTANYEPEDVAKFEYHWQWAYQDKFKEAGLTAILGSGFDPGVTSVFATWLKKHKLATIRQIDVLDA	not soluble
MGSDKIHHHHHHMMKTELHFKKSLLVSAVALATFALAGCANTAPQGKYVDGVHHVSGKGKKSDITLEVKVEQGNITQVKTLSHKETESLYLNAERLLPEIVSHNGHEGIDAISGATYSSNGILKAINDLPRIDGTKPEYQSVGARSQTGDDDFKLKWSIQPRLGLVKGDYYFEEARFRQGHMGSMLVVVDSNNLQDVILAEFNESGRPNYYTRLYQNVPKRMSEYNFSMGKKKGTAWVQSALTMEKLMMEKDQLTFELNPNYDPKLGNQLTEPNRLKYQGIDIVAGASNSIQQSMIPLTAKIHNRIQAGASDALFYQQAEKLLDEKGRWTGVTAMLRLVVDKNSHKITHAHYDEIFADEKKDIQDASLKAFYRQSKYDSINYVEPARIGFNVMIDALSLHLKEGGSLFNINDLPAAGDTGSYAQTGFTKRSDAWDNYLRLAGILYKQMRADGVINEHALPAQ	not soluble
MAKKPSKKKVKRQVASGRAYIHASYNNTIVTITDPDGNPITWSSGGVIGYKGSRKGTPYAAQLAALDAAKKAMAYGMQSVDVIVRGTGAGREQAIRALQASGLQVKSIVDDTPVPHNGCRPKKKFRKAS	soluble
